According to patent publication US20260001937A1, “NOVEL RECOMBINANT FIBRINOGEN VARIANTS FOR FIBRIN SEALANTS FOR SURGICAL WOUND CARE” (Julius-Maximilians-Universität Würzburg, priority 2022, published 2026):

T1: His-rFbgH433R435
T1 chain 1: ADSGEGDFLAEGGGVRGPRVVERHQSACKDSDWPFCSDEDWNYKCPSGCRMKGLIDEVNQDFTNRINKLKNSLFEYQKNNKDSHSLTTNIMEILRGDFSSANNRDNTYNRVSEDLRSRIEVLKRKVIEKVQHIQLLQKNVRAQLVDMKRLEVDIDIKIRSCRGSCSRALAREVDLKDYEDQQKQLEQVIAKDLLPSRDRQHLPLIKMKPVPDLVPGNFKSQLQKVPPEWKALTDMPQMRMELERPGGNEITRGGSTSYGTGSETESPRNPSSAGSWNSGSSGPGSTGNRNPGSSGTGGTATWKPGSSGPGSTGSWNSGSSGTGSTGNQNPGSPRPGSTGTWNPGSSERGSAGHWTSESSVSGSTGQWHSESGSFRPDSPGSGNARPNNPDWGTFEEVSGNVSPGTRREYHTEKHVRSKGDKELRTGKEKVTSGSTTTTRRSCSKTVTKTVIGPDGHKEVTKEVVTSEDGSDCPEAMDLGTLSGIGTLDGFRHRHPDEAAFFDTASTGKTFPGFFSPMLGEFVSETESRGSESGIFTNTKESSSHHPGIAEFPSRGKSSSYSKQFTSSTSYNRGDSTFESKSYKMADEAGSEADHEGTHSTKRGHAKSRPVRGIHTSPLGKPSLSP
T1 chain 2: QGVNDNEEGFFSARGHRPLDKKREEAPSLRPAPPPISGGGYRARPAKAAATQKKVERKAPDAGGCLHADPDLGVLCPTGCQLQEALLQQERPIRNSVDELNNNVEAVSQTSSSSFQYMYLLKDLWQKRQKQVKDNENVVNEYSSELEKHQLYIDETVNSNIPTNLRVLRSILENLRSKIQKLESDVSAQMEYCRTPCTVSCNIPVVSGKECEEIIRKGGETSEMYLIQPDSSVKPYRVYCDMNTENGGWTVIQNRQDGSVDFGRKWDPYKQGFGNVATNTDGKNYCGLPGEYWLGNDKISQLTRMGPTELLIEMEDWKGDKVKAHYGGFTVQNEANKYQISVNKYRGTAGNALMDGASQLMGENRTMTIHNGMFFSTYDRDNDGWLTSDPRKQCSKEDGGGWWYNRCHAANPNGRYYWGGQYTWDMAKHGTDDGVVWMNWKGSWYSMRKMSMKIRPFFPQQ
T1 chain 3: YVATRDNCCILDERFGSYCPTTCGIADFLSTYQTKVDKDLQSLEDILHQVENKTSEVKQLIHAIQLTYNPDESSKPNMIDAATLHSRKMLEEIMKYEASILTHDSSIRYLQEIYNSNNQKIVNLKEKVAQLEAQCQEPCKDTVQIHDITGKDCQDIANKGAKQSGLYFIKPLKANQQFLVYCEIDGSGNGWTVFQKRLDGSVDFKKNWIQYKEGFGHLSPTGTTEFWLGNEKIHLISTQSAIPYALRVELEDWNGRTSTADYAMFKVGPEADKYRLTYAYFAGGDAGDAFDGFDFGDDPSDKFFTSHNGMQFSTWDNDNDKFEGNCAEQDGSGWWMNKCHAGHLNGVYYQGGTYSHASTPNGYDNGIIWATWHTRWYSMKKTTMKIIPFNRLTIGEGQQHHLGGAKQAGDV


How the values were obtained:
[1] = test system: ExpiCHO-S cell supernatant (degradation of fibrinogen α-chain); test: Screening of inhibitors for Fbg degradation in ExpiCHO-S cell supernatant (SDS-PAGE); type: biochemical, Chinese hamster; settings: commercial human Fbg 3.3 mg/mL, 37 C, several days, Aprotinin 50 μg/mL, EDTA 4 mM, 1,10 Phenanthroline 1 mM, UK 370106 100 μM
Experimental: ExpiCHO-S cells were cultured to a density of 6×10^6 cells/mL. Afterwards, cells were centrifuged for 4 min at 1000 rpm at RT and the supernatant was collected. Commercially available fibrinogen (SigmaAldrich) was mixed with the supernatant to a final concentration of 3.3 mg/mL and a volume of 200 μl. The mixture incubated at 37° C. and 750 rpm and samples were taken at 0, 24 and 48 h. For the screening the different inhibitors were added to the mixture (final concentrations: PMSF: 1 mM; Aprotinin: 50 μg/mL; GM6001: 25 μM; EDTA: 4 mM; 1,10 Phenanthroline: 1 mM; UK 370106: 100 μM). As control fibrinogen was incubated in 10 mM Tris/HCl, 150 mM NaCl (pH 7.5) under the same conditions. For the visualization of fibrinogen degradation, 20 μL of the mixtures were analyzed using SDS-PAGE.
Commercially available human Fbg was incubated with the supernatant taken from the CHO cells used for the expression and incubated the protein at 37 C for several days.

[2] = biological target: T2, human plasmin (Homo sapiens, UniProt P00747); test: Plasmin digest in solution of Fbg and rFbg variants, high-resolution ESI-MS of γ-chain cleavage sites; type: biochemical; settings: for plasmin cleavage at the 4 sites K88, K111, K382, K399 of the γ-chain: fibrinogen solution 1 mg/mL, plasmin 0.5 U/mL, 24 h, 37° C., high-resolution ESI-MS; for plasmin cleavage at position 382 of the γ-chain (FIG. 5): peptide fragments after plasmin and additional ProAlanase cleavage, both cleaved and non-cleaved peptides detected
T2 construct: Active plasmin is a serine protease that is derived from its zymogen plasminogen; purchased Merck
Experimental: In order to analyze plasmin digestion of mutated restriction sites, 100 μL of human plasmin (Merck) (0.5 U/mL) were added to 100 μg of Fbg and rFbg (Ala and His) and incubated for 24 h at 37° C. and 130 rpm in order to ensure complete cleavage. Afterwards, samples were stored at −80° C. For the analysis of the time-dependent cleavage site determination and quantification of plasmin, fibrin gels (20 mg/mL) were incubated with different plasmin concentrations ranging from 0.005 mU/mL-0.5 U/mL. Samples were taken at different timepoints from 1 min to 24 h. PMSF (1 mM) was added to the sample and heated at 95° C. for 10 minutes to ensure plasmin inactivation. Samples were stored at −80° C.
Proteins were digested either with plasmin alone (vide supra) or with plasmin and ProAlanase (ProAla) (Promega) with slight differences in handling. For all digests, all samples (WT/HIS/ALA) were brought to a concentration of 0.2 μg/μL in 50 mM tris buffer. For “plasmin only” samples were immediately purified (see below). For ProAla (Promega), 50 μL of 8M Guanidinium Hydrochloride were added to 10 μg (50 μL) of protein stock solution and briefly heated to ensure denaturation. To enable specific ProAla digest the solution was acidified using 900 μL of 32 mM HCl. After pH was checked to be in the range of 1-1.5, ProAla was added (1:50 ProAla:Protein; […]), proteolysis was allowed to continue for 2.5 h. Afterwards, pH was set to slightly basic by addition of 0.5-1 mL of 2 M Tris buffer. In the next step, the samples were immediately purified.
Precursor Tolerance of 15 ppm, fragment mass tolerance of 20 ppm, digestion C-terminal of K (non-specific), modifications are concurrent with the PMI-Byos recommendations for sequence variant analysis workflows (two rare and common modifications allowed).
Precursor Tolerance of 15 ppm, fragment mass tolerance of 20 ppm, digestion C-terminal of A and P (non-specific), modifications are concurrent with the PMI-Byos recommendations for sequence variant analysis workflows (two rare and common modifications allowed).
The α-chain plays an important part in the gelation process of fibrin. Due to the truncated α-chain gel formation with rFbg was not possible, as the production of intact complex (compare above) was still ongoing. Therefore, plasmin digests in solution with WT as well as both Ala- and His-rFbg mutants was performed to investigate if the inserted mutations are limiting proteolytic efficiency of plasmin at the respective cleavage sites. Plasmin was added to the fibrinogen solution (1 mg/mL) to a final concentration of 0.5 U/mL and the mixture was incubated for 24 h to ensure complete cleavage of fibrinogen. […] At some positions both cleaved and non-cleaved peptides were detected, however no cleavage did contain a mutation. This might be due to residual WT-Fbg peptides either on the column (carryover) or through residual WT-Fbg at any point in the workup.

[3] = test system: ExpiCHO-S cells; settings: literature report (ref. 51); cited from earlier work
[4] = test system: His-rFbgH433R435
[5] = biological target: T1, His-rFbgH433R435

T2 sequence (P00747 97-580 limits assumed): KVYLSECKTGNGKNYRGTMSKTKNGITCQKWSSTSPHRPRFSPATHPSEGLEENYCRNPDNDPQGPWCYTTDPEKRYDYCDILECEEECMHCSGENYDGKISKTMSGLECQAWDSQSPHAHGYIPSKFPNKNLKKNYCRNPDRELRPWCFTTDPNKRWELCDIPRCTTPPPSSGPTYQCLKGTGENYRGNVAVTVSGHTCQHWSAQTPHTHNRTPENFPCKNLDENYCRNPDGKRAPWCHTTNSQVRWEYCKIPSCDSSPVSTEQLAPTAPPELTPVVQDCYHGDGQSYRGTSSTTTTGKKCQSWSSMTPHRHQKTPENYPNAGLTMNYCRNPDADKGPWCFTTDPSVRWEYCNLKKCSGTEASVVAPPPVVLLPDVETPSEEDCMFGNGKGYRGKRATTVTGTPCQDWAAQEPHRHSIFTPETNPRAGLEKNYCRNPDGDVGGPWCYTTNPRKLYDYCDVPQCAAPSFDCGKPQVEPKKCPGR
T2 sequence (P00747 581-810 limits assumed): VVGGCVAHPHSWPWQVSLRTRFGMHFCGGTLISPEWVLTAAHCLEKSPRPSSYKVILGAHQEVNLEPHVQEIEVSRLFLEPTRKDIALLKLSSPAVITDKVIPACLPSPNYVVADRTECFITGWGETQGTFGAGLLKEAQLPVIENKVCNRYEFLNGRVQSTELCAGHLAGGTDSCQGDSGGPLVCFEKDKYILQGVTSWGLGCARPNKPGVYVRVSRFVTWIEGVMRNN

| plasmin cleavage at the 4 sites K88, K111, K382, K399 of the γ-chain [2] | Molecule | state of the Fbg α-chain after incubation with CHO cell supernatant plus inhibitor [1] | further results |
| --- | --- | --- | --- |
|  | c1cnc2c(c1)ccc1cccnc12 [1,10 Phenantroline, 1,10 Phenanthroline] | intact α-chain was detected |  |
|  | O=C(O)CN(CCN(CC(=O)O)CC(=O)O)CC(=O)O [EDTA] | intact α-chain was detected |  |
|  | COC[C@@H](NC(=O)[C@@H](NC(=O)[C@H](CCCc1ccc(-c2ccccc2)c(C)c1)CC(=O)O)C(C)(C)C)c1ccccc1 [UK 370106, (βR)-β-[[[(1 S)-1-[[[(1 S)-2-Methoxy-1-phenylethyl]amino]carbonyl]-2,2-dimethylpropyl]amino]carbonyl]-2-methyl-[1,1′-biphenyl]-4-hexanoic acid] | intact α-chain was detected |  |
| no cleavage was detected | Ala-rFbg: recombinant fibrinogen of Aα-, Bβ- and γ-chain with γ-chain K88A, K111A, K382A, K399A |  | plasmin cleavage at position 382 of the γ-chain (FIG. 5) [2]: partial cleavage |
| no cleavage was detected | His-rFbg: recombinant fibrinogen of Aα-, Bβ- and γ-chain with γ-chain K88H, K111H, K382H, K399H |  | plasmin cleavage at position 382 of the γ-chain (FIG. 5) [2]: partial cleavage |
| could be detected | WT: commercially available human fibrinogen (SigmaAldrich), wild type, used as control [reference compound] |  |  |
|  | aprotinin | truncated α-chain is also visible | effect of inhibitor addition during CHO cell expression on proteolytic degradation of the fibrinogen α-chain [3]: did inhibit proteolytic degradation |
|  | thrombin |  | thrombin-catalyzed fibrin polymerization, turbidity at 350 nm [4]: thrombin-induced fibrin polymerization of His-rFbgH433R435 was slightly reduced compared with control (pFbg), with a similar lag time and comparable absorption |
|  | factor XIIIa (Fibrogammin, CSL Behring) (protein) GVNLQEFLNVTSVHLFKERWDTNKVDHHTDKYENNKLIVRRGQSFYVQIDFSRPYDPRRDLFRVEYVIGRYPQENKGTYIPVPIVSELQSGKWGAKIVMREDRSVRLSIQSSPKCIVGKFRMYVAVWTPYGVLRTSRNPETDTYILFNPWCEDDAVYLDNEKEREEYVLNDIGVIFYGEVNDIKTRSWSYGQFEDGILDTCLYVMDRAQMDLSGRGNPIKVSRVGSAMVNAKDDEGVLVGSWDNIYAYGVPPSAWTGSVDILLEYRSSENPVRYGQCWVFAGVFNTFLRCLGIPARIVTNYFSAHDNDANLQMDIFLEEDGNVNSKLTKDSVWNYHCWNEAWMTRPDLPVGFGGWQAVDSTPQENSDGMYRCGPASVQAIKHGHVCFQFDAPFVFAEVNSDLIYITAKKDGTHVVENVDATHIGKLIVTKQIGGDGMMDITDTYKFQEGQEEERLALETALMYGAKKPLNTEGVMKSRSNVDMDFEVENAVLGKDFKLSITFRNNSHNRYTITAYLSANITFYTGVPKAEFKKETFDVTLEPLSFKKEAVLIQAGEYMGQLLEQASLHFFVTARINETRDVLAKQKSTVLTIPEIIIKVRGTQVVGSDMTVTVEFTNPLKETLRNVWVHLDGPGVTRPMKKMFREIRPNSTVQWEEVCRPWVSGHRKLIASMSSDSLRHVYGELDVQIQRRPSM |  | FXIIIa-catalyzed cross-linking of gamma-chains, reducing SDS-PAGE [5]: the cross-linked γ-γ-dimer bands of rFbgH433R435 were visible after 5 min, indicating rapid lateral linkage |
